B1: PyoS5_(1–196) (domain or fragment)
chain: MSNDNEVPGSMVIVAQGPDDQYAYEVPPIDSAAVAGNMFGDLIQREIYLQKNIYYPVRSIFEQGTKEKKEINKKVSDQVDGLLKQITQGKREATRQERVDVMSAVLHKMESDLEGYKKTFTKGPFIDYEKQSSLSIYEAWVKIWEKNSWEERKKYPFQQLVRDELERAVAYYKQDSLSEAVKVLRQELNKQKALKE
notes: source: E. coli BL21(DE3), purified (HisTrap HP, Superdex 200 SEC)
B2: Pyocin S5 (natural protein)
chain: MSNDNEVPGSMVIVAQGPDDQYAYEVPPIDSAAVAGNMFGDLIQREIYLQKNIYYPVRSIFEQGTKEKKEINKKVSDQVDGLLKQITQGKREATRQERVDVMSAVLHKMESDLEGYKKTFTKGPFIDYEKQSSLSIYEAWVKIWEKNSWEERKKYPFQQLVRDELERAVAYYKQDSLSEAVKVLRQELNKQKALKEKEDLSQLERDYRTRKANLEMKVQSELDQAGSALPPLVSPTPEQWLERATRLVTQAIADKKQLQTTNNTLIKNSPTPLEKQKAIYNGELLVDEIASLQARLVKLNAETTRRRTEAERKAAEEQALQDAIKFTADFYKEVTEKFGARTSEMARQLAEGARGKNIRSSAEAIKSFEKHKDALNKKLSLKDRQAIAKAFDSLDKQMMAKSLEKFSKGFGVVGKAIDAASLYQEFKISTETGDWKPFFVKIETLAAGAAASWLVGIAFATATATPIGILGFALVMAVTGAMIDEDLLEKANNLVISI
B3: PyoS5_(1–315) (domain or fragment)
chain: MSNDNEVPGSMVIVAQGPDDQYAYEVPPIDSAAVAGNMFGDLIQREIYLQKNIYYPVRSIFEQGTKEKKEINKKVSDQVDGLLKQITQGKREATRQERVDVMSAVLHKMESDLEGYKKTFTKGPFIDYEKQSSLSIYEAWVKIWEKNSWEERKKYPFQQLVRDELERAVAYYKQDSLSEAVKVLRQELNKQKALKEKEDLSQLERDYRTRKANLEMKVQSELDQAGSALPPLVSPTPEQWLERATRLVTQAIADKKQLQTTNNTLIKNSPTPLEKQKAIYNGELLVDEIASLQARLVKLNAETTRRRTEAERKAA
notes: as for B1
B4: ferric pyochelin transporter FptA (receptor)
chain: DARKDGETELPDMVISGESTSATQPPGVTTLGKVPLKPRELPQSASVIDHERLEQQNLFSLDEAMQQATGVTVQPFQLLTTAYYVRGFKVDSFELDGVPALLGNTASSPQDMAIYERVEILRGSNGLLHGTGNPAATVNLVRKRPQREFAASTTLSAGRWDRYRAEVDVGGPLSASGNVRGRAVAAYEDRDYFYDVADQGTRLLYGVTEFDLSPDTLLTVGAQYQHIDSITNMAGVPMAKDGSNLGLSRDTYLDVDWDRFKWDTYRAFGSLEQQLGGGWKGKVSAEYQEADSRLRYAGSFGAIDPQTGDGGQLMGAAYKFKSIQRSLDANLNGPVRLFGLTHELLGGVTYAQGETRQDTARFLNLPNTPVNVYRWDPHGVPRPQIGQYTSPGTTTTTQKGLYALGRIKLAEPLTLVVGGRESWWDQDTPATRFKPGRQFTPYGGLIWDFARDWSWYVSYAEVYQPQADRQTWNSEPLSPVEGKTYETGIKGELADGRLNLSLAAFRIDLENNPQEDPDHPGPPNNPFYISGGKVRSQGFELEGTGYLTPYWSLSAGYTYTSTEYLKDSQNDSGTRYSTFTPRHLLRLWSNYDLPWQDRRWSVGGGLQAQSDYSVDYRGVSMRQGGYALVNMRLGYKIDEHWTAAVNVNNLFDRTYYQSLSNPNWNNRYGEPRSFNVSLRGAF
B5: PyoS5_(1–299) (domain or fragment)
chain: MSNDNEVPGSMVIVAQGPDDQYAYEVPPIDSAAVAGNMFGDLIQREIYLQKNIYYPVRSIFEQGTKEKKEINKKVSDQVDGLLKQITQGKREATRQERVDVMSAVLHKMESDLEGYKKTFTKGPFIDYEKQSSLSIYEAWVKIWEKNSWEERKKYPFQQLVRDELERAVAYYKQDSLSEAVKVLRQELNKQKALKEKEDLSQLERDYRTRKANLEMKVQSELDQAGSALPPLVSPTPEQWLERATRLVTQAIADKKQLQTTNNTLIKNSPTPLEKQKAIYNGELLVDEIASLQARLVKL

Key:
Conditions in all cases: both partners purified
[1] = target: B4; test: SPR
[2] = target: B4; test: native MS
PyoS5_(1–315) Δ2–9 = target: T1, PyoS5_(1–315) Δ2–9 (P. aeruginosa, UniProt Q9I4Y4 1-315, Δ2–9); test: SPR
T1 construct: source: E. coli BL21(DE3), purified (HisTrap HP, Superdex 200 SEC)

PyoS5_(1–315) Δ10–13 = target: T2, PyoS5_(1–315) Δ10–13 (P. aeruginosa, UniProt Q9I4Y4 1-315, Δ10–13); test: SPR
T2 construct: source: E. coli BL21(DE3), purified (HisTrap HP, Superdex 200 SEC)

PyoS5_(1–315) Δ2–39 = target: T3, PyoS5_(1–315) Δ2–39 (P. aeruginosa, UniProt Q9I4Y4 1-315, Δ2–39); test: SPR
T3 construct: source: E. coli BL21(DE3), purified (HisTrap HP, Superdex 200 SEC)

Binder | Kd [1] [µM] | binding result [2] | also measured
B1 | 7.1 ± 0.7 |  | 
B2 |  | binds | 
B3 | 6.5 ± 0.4 |  | 
B4 |  |  | binding result (PyoS5_(1–315) Δ2–9): binds; binding result (PyoS5_(1–315) Δ10–13): binds; Kd (PyoS5_(1–315) Δ2–39): 14.7 ± 0.4 µM
B5 |  | binds | 
